Patent US11505586B2, “Interaction of Draxin and γ-netrins” (Max-Planck-Gesellschaft zur Foerderung der Wissenschaften …, priority 2014, dated 2022)

Tests used:
Netrin1a = assay: AVEXIS extracellular protein-protein interaction screen; type: binding, zebrafish
Excerpt: To detect extracellular protein-protein interactions in a high-throughput manner we used the AVEXIS assay as described in Bushell et al. (Bushell et al., 2008) with minor modifications.
In brief: A zebrafish protein library enriched for mainly in neuronal tissues expressed secreted proteins and extracellular domains of cell surface proteins has been assembled. The library consists of prey and bait proteins. Preys are composed of the extracellular domain (ECD) of interest followed by a CD4 tag (rat Cd4d3+4) and a pentamerization domain derived from the rat Comp protein followed by β-lactamase. For the bait proteins the ECDs are fused to a CD4 tag and a biotinylation peptide. […] The proteins in the supernatants have been quantified and normalized.
The bait proteins have been immobilized on streptavidin coated 96 well microtiter plates (one bait/well) and incubated for 1 hour at room temperature. […] Then the absorbance at 486 nm of each well has been measured using a μQuant spectrophotometer (BIO-TEK Instruments, INC). […]
In the primary screen interactions were ‘called’ if the absorbance (at 486 nm) of a well after 1 h of incubation was ≥0.1 and 3 Sigma above the standard deviations of the mean of all wells. All interactions detected in the primary screen have been retested in a validation screen by using independently produced batches of proteins.

[1] = system: human β-Netrin family members; assay: AVEXIS pairwise binding screen, human proteins; conditions: Netrin-4, Netrin-G1, Netrin-G2
Excerpt: (§1) AVEXIS was used to test pairwise binding events in both bait/prey orientations between human DRAXIN, the derived 21 amino acid peptide, human Netrin family members, and two representative Netrin receptors (DCC, UNC5B). The Matn4-bait served as an internal prey-protein control and was used for normalization of the A486 nm values; conditioned medium (CM) serves as negative control; n=3.
(§2) To determine the binding specificity of DRAXIN/Netrin interactions, we carried out a pairwise binding screen between human DRAXIN and human Netrin family members. Except Netrin-5, we included all human Netrin family members consisting of two secreted γ-Netrins (Netrin-1 and Netrin-3) and one secreted (Netrin-4) and two GPI-linked β-Netrins (Netrin-G1 and Netrin-G2) in our binding study. Human DRAXIN and a 21 amino acid Netrin binding fragment derived thereof (SEQ ID NO.: 1) bound to Netrin-1 and Netrin-3 but not to human β-Netrin family members (FIG. 13).

Netrin-3 = biological target: T1, Netrin-3 (Homo sapiens, UniProt O00634); assay: AVEXIS pairwise binding screen, human proteins; conditions: both bait/prey orientations
T1 construct: made in house; host or cells: HEK293-6E (general AVEXIS method)
T1 sequence (O00634 28-580): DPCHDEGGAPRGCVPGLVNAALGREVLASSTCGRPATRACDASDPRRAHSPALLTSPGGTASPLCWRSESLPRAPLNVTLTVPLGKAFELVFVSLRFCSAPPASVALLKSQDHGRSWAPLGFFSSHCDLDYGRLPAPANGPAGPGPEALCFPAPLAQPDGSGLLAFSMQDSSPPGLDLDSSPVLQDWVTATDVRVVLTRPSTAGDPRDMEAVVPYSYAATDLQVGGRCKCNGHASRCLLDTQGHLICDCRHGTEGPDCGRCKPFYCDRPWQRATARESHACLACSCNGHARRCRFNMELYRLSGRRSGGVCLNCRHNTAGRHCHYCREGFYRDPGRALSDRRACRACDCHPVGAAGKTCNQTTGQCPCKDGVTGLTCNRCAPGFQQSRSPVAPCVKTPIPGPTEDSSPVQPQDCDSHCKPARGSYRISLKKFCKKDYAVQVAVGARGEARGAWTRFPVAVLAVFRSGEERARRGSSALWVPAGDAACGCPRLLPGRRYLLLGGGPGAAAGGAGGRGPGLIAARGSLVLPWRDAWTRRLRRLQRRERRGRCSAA
Excerpt: as §1, §2

Netrin-1 = biological target: T2, Netrin-1 (Homo sapiens, UniProt O95631); assay: AVEXIS pairwise binding screen, human proteins; conditions: both bait/prey orientations
T2 construct: made in house; host or cells: HEK293-6E (general AVEXIS method)
Excerpt: as §1, §2

Netrin1a/DCC = assay: AVEXIS based competition assay; type: binding, zebrafish; conditions: for inhibition of binding of Netrin1a to DCC: inhibitor added together with DCC prey, Netrin1a bait
Excerpt: (§3) The procedure of the competition assay is based on the AVEXIS assay. Netrin1 receptors were used as prey proteins together with 6×His ? tagged purified Draxin (potential antagonist), and probed against Netrin1a bait proteins. The indicated concentrations of the potential inhibitors have been added together with prey proteins. For the competition tests with purified Draxin the concentration of the Netrin receptor prey proteins has been adjusted to an identical threshold binding concentration.
We determined the concentration of ECD-hFc fusion proteins in tissue culture supernatants by ELISA, using the human IgG Fc fragment (Calbiochem) as a reference. Dilution series of the ECD-hFc containing supernatants have been incubated over night at 4° C. on 96 well Maxisorp plates (Nunc). After 3 PBS washes the plates were blocked with 0.5% BSA containing PBS (1 h). After additional 2 PBS washes and 1-hour incubation with an anti-human IgG (Fc specific) antibody fused to alkaline phosphatase (SIGMA) the plates have been washed 3 times with PBS. The detection has been carried out by addition of 50 μl/well of the AP substrate p-nitrophenylphosphate (SouthernBiotech). The substrate turnover has been determined by measuring the absorbance at 405 nm.
(§4) By using an AVEXIS-based competition assay (FIG. 6 A) we tested whether the binding of DraxinA to Netrin1a has an influence on Netrins ability to bind to Netrin receptors. First we confirmed that we reliably detected the binding of Netrin1a to Netrin receptors of the DCC/Neo1 and Unc5 families with the AVEXIS method. We also tested whether Draxin is able to bind to the corresponding Netrin receptors. […] This has also been confirmed by a recent publication (Haddick et al. 2014). In the competition assay the extracellular domains (ECDs) of Netrin receptors have been used as prey proteins together with purified full length DraxinA and probed for binding against Netrin1a bait proteins. […] The inhibition is specific for DraxinA.

Netrin1a/Neo1 = assay: AVEXIS based competition assay; type: binding, zebrafish; conditions: purified protein with Neo1 prey, Netrin1a bait
Excerpt: as §3, §4

Netrin1a/Unc5b = assay: AVEXIS based competition assay; type: binding, zebrafish; conditions: purified protein with Unc5b prey, Netrin1a bait
Excerpt: as §3, §4

RGMc/Neo1 = assay: AVEXIS based competition assay; type: binding, zebrafish
endogenous netrins = assay: In situ detection of Draxin binding partners with affinity probe; design: species or system zebrafish
Procedure: A netrin binding fragment of Draxin (aa209-284) fused to the Fc region of human IgG (Draxinaa209-284-hFc) has been expressed in HEK293-6E cells and used as an affinity probe to detect binding partners in zebrafish embryos. Draxinaa209-284-hFc in situ staining has been done in whole mount wild type and netrin-1 knockdown zebrafish embryos. At 46 hpf wild type zebrafish embryos were dechorionated by for 2 hours at RT incubation in 0.1 mg/ml Pronase. At 48 hpf embryos were prefixed for 10 min at RT in 4% (w/v) paraformaldehyde (PFA) containing 1% Triton X-100 (v/v). After 3 washes (each 20 min) with PBS+1% Triton X-100 the embryos were blocked for 4 h at RT in PBS containing 0.2% BSA and 0.5% Triton X-100. Overnight incubation at 4° C. with HEK293-6E supernatant containing the Draxin-hFc fusion protein was followed by 3 short washes (10 min each) with PBST. Subsequently the embryos were post-fixed in 4% PFA (4 h at RT or overnight at 4° C.), rinsed shortly 3 times with PBST and incubated for 4 h at RT with an Alexa Fluor 568 goat anti human IgG antibody (Invitrogen, 1:250 dilution). After 3 washes (30 min each) in PBST the embryos were mounted in glycerol for visualization using a Zeiss LSM 510 microscope. […]

B1: Human DRAXIN: human Draxin (SEQ ID NO.: 4) expressed as AVEXIS bait/prey protein (protein, listed as Homo sapiens)
chain: MAGPAIHTAPMLFLVLLLPLELSLAGALAPGTPARNLPENHIDLPGPALWTPQASHHRRRGPGKKEWGPGLPSQAQDGAVVTATRQASRLPEAEGLLPEQSPAGLLQDKDLLLGLALPYPEKENRPPGWERTRKRSREHKRRRDRLRLHQGRALVRGPSSLMKKAELSEAQVLDAAMEESSTSLAPTMFFLTTFEAAPATEESLILPVTSLRPQQAQPRSDGEVMPTLDMALFDWTDYEDLKPDGWPSAKKKEKHRGKLSSDGNETSPAEGEPCDHHQDCLPGTCCDLREHLCTPHNRGLNNKCFDDCMCVEGLRCYAKFHRNRRVTRRKGRCVEPETANGDQGSFINV
modifications: AVEXIS bait/prey tags
Netrin1a; cross-species, both bait-prey orientations
  binding of human Draxin to zebrafish Netrin1a: able to bind
[1]
  binding to human β-Netrin family members: not
Netrin-3
  binding to Netrin-3: bound
Netrin-1
  binding to Netrin-1: bound

B2: DraxinAΔaa231-252-hFc: DraxinA-hFc where the 21aa Netrin1 binding motif has been deleted (protein)
chain: SEISSDNFKQSLTPSTTTSKEHPETGLTGGRQQKRHWSGKERDSAGLFSQRHMDRLEDDGTSMEGLSPVRLEMGPGDTMKAEVHGEVRASAQMRQGSHPAEGELNRKGRRHSHRLLAEHRKHGGKKDKGRGKGDLSDPEPELDSLLKDLNAFEDGLNTSPPNYNSVPLNEVPSPLSPILVTTAIKGHPPTLPPASTKPQKSSQGRTQADSWPSNKRKDKRRSKNKSNGNTTTEAGIVEPCDHHLDCLSGSCCDLREFECKPHNRGLNNKCFDDCMCEEGLRCYAKFHRKRRVTRRRGRCVDPESVNSNQGAFITV
modifications: left off: a dimerising Fc or GST
Netrin1a/DCC
  inhibition of binding of Netrin1a to DCC: not able to compete

B3: DraxinA: full-length zebrafish Draxin isoform A (SEQ ID NO.: 5), 360 amino acids; purified as His-tagged CD4d3+4 fusion (protein)
chain: MVAPGLCQLFILLLITLSHTLHSSEISSDNFKQSLTPSTTTSKEHPETGLTGGRQQKRHWSGKERDSAGLFSQRHMDRLEDDGTSMEGLSPVRLEMGPGDTMKAEVHGEVRASAQMRQGSHPAEGELNRKGRRHSHRLLAEHRKHGGKKDKGRGKGDLSDPEPELDSLLKDLNAFEDGLNTSPPNYNSVPLNEVPSPLSPILVTTAIKGHPPTLPPASTKPQKSSQGRTQGEVMPTLDMTLFDWTDYEDMKPADSWPSNKRKDKRRSKNKSNGNTTTEAGIVEPCDHHLDCLSGSCCDLREFECKPHNRGLNNKCFDDCMCEEGLRCYAKFHRKRRVTRRRGRCVDPESVNSNQGAFITV
modifications: His-tagged CD4d3+4 fusion; Danio rerio
notes: purified as His-tagged CD4d3+4 fusion
Netrin1a; pentameric prey, library of 171 bait proteins
  binding of prey protein to Netrin1a bait: specifically bound
Netrin1a/Neo1
  inhibition of binding of Netrin1a to Neo1: concentration dependent inhibition
Netrin1a/Unc5b
  inhibition of binding of Netrin1a to Unc5b: concentration dependent inhibition
RGMc/Neo1
  inhibition of binding of RGMc to Neo1: not able to block
Netrin1a/DCC; Netrin1a-baits preincubated with DCC preys, then purified DraxinA added
  disruption of already formed DCC/Netrin1a complexes: can be disrupted
Netrin1a/DCC
  inhibition of binding of Netrin1a to DCC: concentration dependent inhibition

B4: DraxinA-hFc: full-length DraxinA fused to human Fc (protein)
chain: SEISSDNFKQSLTPSTTTSKEHPETGLTGGRQQKRHWSGKERDSAGLFSQRHMDRLEDDGTSMEGLSPVRLEMGPGDTMKAEVHGEVRASAQMRQGSHPAEGELNRKGRRHSHRLLAEHRKHGGKKDKGRGKGDLSDPEPELDSLLKDLNAFEDGLNTSPPNYNSVPLNEVPSPLSPILVTTAIKGHPPTLPPASTKPQKSSQGRTQGEVMPTLDMTLFDWTDYEDMKPADSWPSNKRKDKRRSKNKSNGNTTTEAGIVEPCDHHLDCLSGSCCDLREFECKPHNRGLNNKCFDDCMCEEGLRCYAKFHRKRRVTRRRGRCVDPESVNSNQGAFITV
modifications: left off: a dimerising Fc or GST
Netrin1a/DCC
  inhibition of binding of Netrin1a to DCC: able to outcompete

B5: Draxinaa209-284-hFc: netrin binding fragment of Draxin (aa209-284) fused to the Fc region of human IgG, affinity probe (protein)
chain: GHPPTLPPASTKPQKSSQGRTQGEVMPTLDMTLFDWTDYEDMKPADSWPSNKRKDKRRSKNKSNGNTTTEAGIVEP
modifications: left off: a dimerising Fc or GST
Endogenous netrins; 48 hpf netrin1a and netrin1b double-knockdown embryos
  in situ signal of bound affinity probe: barely detectable
Endogenous netrins; 48 hpf wild type embryos
  in situ signal of bound affinity probe: only detect a signal in close proximity to the floor plate
